{
  "source": "patent US9422541",
  "molecular_target": "T1, Recombinant C5a produced as an N-term His-tagged fusion (HT-C5a)",
  "T1 chain": "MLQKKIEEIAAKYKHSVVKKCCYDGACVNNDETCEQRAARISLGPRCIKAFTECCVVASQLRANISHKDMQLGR",
  "data": [
    {"protein": "ScpA, bacterial C5a protease from Streptococcus pyogenes (protein) DANDLAPQAPAKTADTPATSKATIRDLNDPSQVKTLQEKAGKGAGTVVAVIDAGFDKNHEAWRLTDKTKARYQSKEDLEKAKKEHGITYGEWVNDKVAYYHDYSKDGKTAVDQEHGTHVSGILSGNAPSETKEPYRLEGAMPEAQLLLMRVEIVNGLADYARNYAQAIRDAVNLGAKVINMSFGNAALAYANLPDETKKAFDYAKSKGVSIVTSAGNDSSFGGKTRLPLADHPDYGVVGTPAAADSTLTVASYSPDKQLTETAMVKTDDQQDKEMPVLSTNRFEPNKAYDYAYANRGMKEDDFKDVKGKIALIERGDIDFKDKVANAKKAGAVGVLIYDNQDKGFPIELPNVDQMPAAFISRKDGLLLKDNPQKTITFNATPKVLPTASGTKLSRFSSWGLTADGNIKPDIAAPGQDILSSVANNKYAKLSGTSMSAPLVAGIMGLLQKQYETQYPDMTPSERLDLAKKVLMSSATALYDEDEKAYFSPRQQGAGAVDAKKASAATMYVTDKDNTSSKVHLNNVSDKFEVTVTVHNKSDKPQELYYQATVQTDKVDGKHFALAPKVLYEASWQKITIPANSSKQVTVPIDASRFSKDLLAQMKNGYFLEGFVRFKQDPTKEELMSIPYIGFRGDFGNLSAVEKPIYDSKDGSSYYHEANSDAKDQLDGDGLQFYALKNNFTALTTESNPWTIIKAVKEGVENIEDIESSEITETIFAGTFAKQDDDSHYYIHRHANGEPYAAISPNGDGNRDYVQFQGTFLRNAKNLVAEVLDKEGNVVWTSEVTEQVVKNYNNDLASTLGSTRFEKTRWDGKDKDGKVVANGTYTYRVRYTPISSGAKEQHTDFDVIVDNTTPEVATSATFSTEDRRLTLASKPKTSQPVYRERIAYTYMDEDLPTTEYISPNEDGTFTLPEEAETMEGATVPLKMSDFTYVVEDMAGNITYTPVTKLLEGHS", "values": [
      {"measurement": "C5a-ase activity (SDS-PAGE of C5a treated with ScpA; 42 nM ScpA with 37 µM HT-C5a, 30 min at 20° C.)", "result": "the ScpA cleaved C5a at a single site"},
      {"measurement": "mass loss of cleaved HT-C5a by MALDI-TOF MS", "result": "a loss of 830 Da, consistent with the removal of seven residues from the C terminal"}
    ]}
  ]
}
